According to article doi:10.1101/2022.11.11.516098:

Key:
MLEΔG [1] = target: T1, MLEΔG (UniProt P24785 1-1158); assay: cryo-EM
MLEΔG [2] = target: T1, MLEΔG; assay: fluorescence polarization
MLEΔGin = MLEΔGin (UniProt P24785 1-1158, E195C;S633C); assay: fluorescence polarization

**Q.** Does UUUUUUUUUU (ssRNA) [U10 RNA] bind (MLEΔG [1])?
**A.** binds

B1: SL7 (SL7mod-UUC) RNA (structured_RNA)
RNA: GUGUAAAAUGUUGCUAGCAAAUAUAUAUGCUAGUAACGUUUUACGCCCUCUUUCUUUCUU
**Q.** How did the “apparent K (half saturation)” value (MLEΔG [2]) turn out when B1 was run?
**A.** 16 nM

**Q.** Which IC50 (MLEΔGin) does the source give for CCUCUUUCUUUC (ssRNA) [UUC RNA (fluorescein)] here?
**A.** 280 ± 19 nM

**Q.** What about the IC50 (MLEΔG [2]) of the same binder?
**A.** 302 ± 43 nM
